For the data set, the target named is T1, recombinant human SSAO (Homo sapiens, UniProt Q16853).
T1 construct: expressed in transfected cells; cell lysate
T1 sequence (Q16853 1-763): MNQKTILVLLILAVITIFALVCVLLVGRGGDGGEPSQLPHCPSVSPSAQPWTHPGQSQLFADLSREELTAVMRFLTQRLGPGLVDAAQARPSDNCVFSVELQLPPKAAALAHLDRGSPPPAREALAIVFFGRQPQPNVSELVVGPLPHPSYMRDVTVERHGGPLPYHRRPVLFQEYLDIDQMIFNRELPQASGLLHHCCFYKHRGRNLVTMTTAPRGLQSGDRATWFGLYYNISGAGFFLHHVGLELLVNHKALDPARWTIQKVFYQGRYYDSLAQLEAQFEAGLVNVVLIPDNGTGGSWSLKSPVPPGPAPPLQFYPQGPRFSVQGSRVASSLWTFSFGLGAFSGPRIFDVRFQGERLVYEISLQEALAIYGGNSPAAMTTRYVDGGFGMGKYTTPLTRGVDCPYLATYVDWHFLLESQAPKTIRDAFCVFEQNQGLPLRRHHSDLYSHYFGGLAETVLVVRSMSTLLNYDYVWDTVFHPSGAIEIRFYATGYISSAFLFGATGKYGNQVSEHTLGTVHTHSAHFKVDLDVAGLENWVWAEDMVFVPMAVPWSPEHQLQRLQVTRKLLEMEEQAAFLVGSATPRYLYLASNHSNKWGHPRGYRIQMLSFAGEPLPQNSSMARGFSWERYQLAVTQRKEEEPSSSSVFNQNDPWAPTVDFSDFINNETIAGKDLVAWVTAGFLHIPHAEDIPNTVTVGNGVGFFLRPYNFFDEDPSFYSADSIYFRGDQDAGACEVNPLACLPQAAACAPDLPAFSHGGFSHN
As to the kind of experiment: Amplex Red assay of specific activity of recombinant human SSAO. It counts as biochemical. The text has this:
The Amplex Red assay (a commercially available assay), was used initially to measure the specific activity of the recombinant human SSAO. Amplex Red is a colorless and nonfluorescent derivative of dihydroresorufin. In the presence of amine oxidases and SSAO, the Amplex Red reacts with H2O2 to produce the highly fluorescent product, resorufin. Resorufin has an excitation maximum at 563 nm and emission maximum at 587 nm and the assay can be quantified by reading the microtitre plate at 587 nm. The specific activity of recombinant SSAO was determined to be 280 pmol/min/mg protein and this was determined to be equivalent to the specific activity of SSAO found in human lung tissue. For subsequent assays to profile compounds in the LC/MS/MS assay, recombinant human SSAO (rhSSAO) was used at this defined specific activity.

B1: recombinant SSAO: recombinant human SSAO, full-length untagged, in CHO Flp-In cell lysate (protein, UniProt Q16853 1-763, looked up)
chain: MNQKTILVLLILAVITIFALVCVLLVGRGGDGGEPSQLPHCPSVSPSAQPWTHPGQSQLFADLSREELTAVMRFLTQRLGPGLVDAAQARPSDNCVFSVELQLPPKAAALAHLDRGSPPPAREALAIVFFGRQPQPNVSELVVGPLPHPSYMRDVTVERHGGPLPYHRRPVLFQEYLDIDQMIFNRELPQASGLLHHCCFYKHRGRNLVTMTTAPRGLQSGDRATWFGLYYNISGAGFFLHHVGLELLVNHKALDPARWTIQKVFYQGRYYDSLAQLEAQFEAGLVNVVLIPDNGTGGSWSLKSPVPPGPAPPLQFYPQGPRFSVQGSRVASSLWTFSFGLGAFSGPRIFDVRFQGERLVYEISLQEALAIYGGNSPAAMTTRYVDGGFGMGKYTTPLTRGVDCPYLATYVDWHFLLESQAPKTIRDAFCVFEQNQGLPLRRHHSDLYSHYFGGLAETVLVVRSMSTLLNYDYVWDTVFHPSGAIEIRFYATGYISSAFLFGATGKYGNQVSEHTLGTVHTHSAHFKVDLDVAGLENWVWAEDMVFVPMAVPWSPEHQLQRLQVTRKLLEMEEQAAFLVGSATPRYLYLASNHSNKWGHPRGYRIQMLSFAGEPLPQNSSMARGFSWERYQLAVTQRKEEEPSSSSVFNQNDPWAPTVDFSDFINNETIAGKDLVAWVTAGFLHIPHAEDIPNTVTVGNGVGFFLRPYNFFDEDPSFYSADSIYFRGDQDAGACEVNPLACLPQAAACAPDLPAFSHGGFSHN
modifications: full-length
notes: recombinant human SSAO, full-length untagged, in CHO Flp-In cell lysate
Regarding B1, the “specific activity of recombinant SSAO” value is 280 pmol/min/mg protein.

The values are drawn from patent US8883410B2, “Method for determining the stability of organic methyleneamines in the presence of semicarbazide-sensitive amine oxidase” (Sanofi, priority 2007, dated 2014).
